# T1: Recombinant human Glypican-1 protein (Homo sapiens, UniProt P35052)
# T1 construct: purchased R&D systems 4519-GP-050
# T1 sequence (P35052 24-530 limits assumed): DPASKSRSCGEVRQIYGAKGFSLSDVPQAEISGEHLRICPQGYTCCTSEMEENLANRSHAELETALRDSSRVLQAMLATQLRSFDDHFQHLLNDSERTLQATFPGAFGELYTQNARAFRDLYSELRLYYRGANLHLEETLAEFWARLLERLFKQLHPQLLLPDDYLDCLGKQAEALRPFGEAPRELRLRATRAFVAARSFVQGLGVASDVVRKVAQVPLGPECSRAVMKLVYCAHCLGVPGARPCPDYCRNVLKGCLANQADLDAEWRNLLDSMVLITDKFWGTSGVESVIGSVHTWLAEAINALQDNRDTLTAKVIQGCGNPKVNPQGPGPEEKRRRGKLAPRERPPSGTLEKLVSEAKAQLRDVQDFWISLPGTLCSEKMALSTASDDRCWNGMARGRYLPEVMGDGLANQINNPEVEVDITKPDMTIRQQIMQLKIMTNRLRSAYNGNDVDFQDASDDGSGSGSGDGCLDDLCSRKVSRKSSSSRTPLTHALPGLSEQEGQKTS
# B1: clone 01a033 (antibody)
# heavy: QVQLKQSGPELVKPGASVKISCKASGYSFTGYYMHWVKQSPEKSLEWIGEINPSTGDTTYNQKFKAKATLTVDKSSSTAYMQLKSLTSEDSAVYYCAREKRDDGVFAYWGQGTLVTVSSAKTTAPSVYPLAPVCGDTTGSSVTLGCLVKGYFPEPVTLTWNSGSLSSGVHTFPAVLQSDLYTLSSSVTVTSSTWPSQSITCNVAHPASSTKVDKKIEPRGPTIKPCPPCKCPAPNLLGGPSVFIFPPKIKDVLMISLSPIVTCVVVDVSEDDPDVQISWFVNNVEVHTAQTQTHREDYNSTLRVVSALPIQHQDWMSGKEFKCKVNNKDLPAPIERTISKPKGSVRAPQVYVLPPPEEEMTKKQVTLTCMVTDFMPEDIYVEWTNNGKTELNYKNTEPVLDSDGSYFMYSKLRVEKKNWVERNSYSCSVVHEGLHNHHTTKSFSRTPGK
# light: DIVMSQSPKSMSMSVGERVALSCKASENVGTYVSWYQQKPEQSPKLLIYGASNRYTGVPDRFTGSGSATDFTLTISSVQAEDLADYYCGQSYSYPLTFGAGTKLELKRADAAPTVSIFPPSSEQLTSGGASVVCFLNNFYPKDINVKWKIDGSERQNGVLNSWTDQDSKDSTYSMSSTLTLTKDEYERHNSYTCEATHKTSTSPIVKSFNRNEC
# B2: GPC1 ADC (conjugate)
# heavy: B1 heavy
# light: B1 light
# Assays:
# [1] = molecular target: T1, Recombinant human Glypican-1 protein; test: Antigen affinity analysis by ELISA on immobilized recombinant human GPC1; type: binding; settings: for affinity to antigen (ELISA, OD 450 nm): recombinant human GPC1 coated at 2.5 μg/mL
# Protocol: The buffer used in this Example was prepared as follows.
# The primary antibodies used in this Example were prepared. GPC1-CL-MMAF and anti-GPC1 monoclonal antibodies (01a033) were diluted stepwise to 100, 20, 4, 0.8, 0.16, 0.032, 0.0064, 0.00128, 0.000256, 0.0000512, and 0.00001024 nM with a dilution buffer. Recombinant human Glypican-1 proteins (CF, model number: 4519-GP-050, volume: 50 μg) were used as the antigen.
# Recombinant human GPC1 was diluted to 2.5 μg/mL with PBS (−) and added to 64 wells of Immuno 96 well MicroWell Solid Plate (Maxisorp, Nunc) at 50 μL/well, and the plate was sealed. The plate was shaken, and liquid was confirmed to spread throughout the plate. Next, the following procedure was followed.
# *Dilute (1) GPC1-CL-MMAF and (2) anti-GPC1 monoclonal antibody (01a033) with a dilution buffer in a 10-fold dilution series from 100 nM, and add the mixture to the 96-well microplate at 100 μL/well.
# *Dilute Anti-Mouse IgG (H+L) Antibody, Human Serum Adsorbed and Peroxidase labeled (KPL, cat. No.: 474-1806) with a dilution buffer (10% Block Ace) to 0.2 μg/ml (prepare a 5000-fold dilution upon use), and add the mixture to the 96-well microplate at 100 μL/well.
# *Return TMB (SurModics, TMBW-1000-01) to normal temperature before use, and add the TMB to the 96-well microplate at 100 μL/well.
# *Measure absorbance at 450 nm.
# *Analyze data with GraphPad Prism 6.04.
# TE14 cell strain = test: In vivo antitumor effect of unlabeled anti-GPC1 antibody, TE14 graft in SCID mice; design: species or system mouse
# Protocol: Specifically, 2.0×10^6 cells of TE14 cell strain were subcutaneously grafted into female SCID mice (6 week old, n=9). When the tumor size reached about 100 mm^3 on about day 10 to 14 after grafting, administration of control mouse IgG2a (sigma, M7769) and anti-GPC1 antibody 01a033 each at 10 mg/kg was started, which were intraperitoneally administered on day 0, day 3, day 7, day 10, day 14, and day 17, with the day starting the administration considered 0 day. The tumor volume was measured on day 0, day 3, day 7, day 10, day 14, day 17, day 21, day 24, day 28, and day 31.
# DU145 cells = test: ADC assay combining anti-GPC-1 antibody and MMAF binding secondary antibody in DU145 cells; type: cell-based
# Protocol: 2000 DU145 cells were added to a 96-well plate at 80 μl. The cells were cultured overnight at 37° C. in a 5% CO2 incubator. The next day, 10 μl each of anticancer agent binding secondary antibody (2 μg/ml) and primary antibody concentrated 10-fold relative to the final concentration was added to each well, so that the total amount was 100 μl. The cells were cultured for 3 days at 37° C. in a 5% CO2 incubator. The cell viability was measured by using a CellTiter-Glo Luminescent Cell Viability Assay reagent to detect the amount of ATP. RPMI1640+10% FBS+1% PS was used as the medium. The final concentrations of the primary antibodies were […]. 2 μg/ml of Fab-aMFc-CL-MMAF (model number AM202AF-50, Moradec) was used as the secondary antibody. The EC50 value was analyzed with GraphPad Prism 6. The same experiment was conducted using 4000 MDA-MB231 cells as the control.
# LLC-mGPC1-16 = test: In vivo efficacy test on GPC1 ADC, mouse syngenic model using mGPC1 expressing LLC cell strain
# Text: A mouse model (syngenic mouse) with GPC1 expressed in normal cells that is consistent with GPC1 expressed from cancer cells (i.e., both mouse GPC1) can be prepared by grafting the cell strain expressing mouse GPC1 established in Example 16 into mice. The efficacy and safety can be more accurately evaluated in an experiment using such a mouse model.
# FIG. 55 schematically depicts the test in this Example. Specifically, 5.0×10^6 cells of LLC-mGPC1-16 were subcutaneously grafted into female C57BL/6 mice. […] The tumor volume and body weight were measured on day 0, day 4, day 8, day 12, day 16, day 20, and day 24.
Molecule,"affinity to antigen (ELISA, OD 450 nm) [1]",ADCC activity (TE14 cell strain; concluded from the lack of in vivo antitumor effect),"antitumor effect (tumor volume, tumor weight day 31) (TE14 cell strain; unlabeled antibody 10 mg/kg ip day 0, 3, 7, 10, 14, 17)",activity compared to MIL-38 (DU145 cells; DU145 cells),"growth suppressing effect against DU145 cells (DU145 cells; primary antibody plus MMAF secondary antibody 2 μg/ml, 3 days)","EC50 values against DU145 cells (DU145 cells; primary antibody plus MMAF secondary antibody, 3 days)","antitumor effect against tumor expressing mouse GPC-1 (LLC-mGPC1-16; 1, 3, 10 mg/kg)",affinity level of ADC compared with unlabeled antibody ([1]; 01a033 versus 01a033 ADC),"tumor growth (LLC-mGPC1-16; 1 mg/kg iv day 0, 4, 8, 12, compared to the control group)","tumor growth (LLC-mGPC1-16; 3 mg/kg iv day 0, 4, 8, 12)","tumor growth (LLC-mGPC1-16; 10 mg/kg iv day 0, 4, 8, 12)","body weight (LLC-mGPC1-16; 10 mg/kg, tended to recover after 15 days from the start of administration)","toxicity (LLC-mGPC1-16; syngenic mice, 1, 3, 10 mg/kg)"
B1,high affinity,does not have ADCC activity,no antitumor effect,37 fold,high growth suppressing effect,excellent EC50 values,high antitumor effect,,,,,,
B2,high affinity,,,,,,,about the same,significantly delayed,Tumor hardly grew,Tumor hardly grew,transient decrease in body weight,Significant toxicity was not observed

# Source: US20200308299A1, “ANTI-GPC-1 ANTIBODY” (National University Corporation Kochi University, priority 2017, published 2020)
